Assay results from paper doi:10.1101/2021.09.30.462597 (bioRxiv, 2021).
Read-outs that look alike come from different tables or passages of the source. Each block holds one molecule with its values, some of them ahead of it.

B3: Kif7-DM-GFP (1-543aa), dimeric Kif7 protein (domain or fragment, human, UniProt Q2M1P5 1-543, looked up)
chain: MGLEAQRLPGAEEAPVRVALRVRPLLPKELLHGHQSCLQVEPGLGRVTLGRDRHFGFHVVLAEDAGQEAVYQACVQPLLEAFFEGFNATVFAYGQTGSGKTYTMGEASVASLLEDEQGIVPRAMAEAFKLIDENDLLDCLVHVSYLEVYKEEFRDLLEVGTASRDIQLREDERGNVVLCGVKEVDVEGLDEVLSLLEMGNAARHTGATHLNHLSSRSHTVFTVTLEQRGRAPSRLPRPAPGQLLVSKFHFVDLAGSERVLKTGSTGERLKESIQINSSLLALGNVISALGDPQRRGSHIPYRDSKITRILKDSLGGNAKTVMIACVSPSSSDFDETLNTLNYASRAQNIRNRATVNWRPEAERPPEETASGARGPPRHRSETRIIHRGRRAPGPATASAAAAMRLGAECARYRACTDAAYSLLRELQAEPGLPGAAARKVRDWLCAVEGERSALSSASGPDSGIESASVEDQAAQGAGGRKEDEGAQQLLTLQNQVARLEEENRDFLAALEDAMEQYKLQSDRLREQQEEMVELRLRLELVRP
B4: Kif7-DM(E502A)-GFP (domain or fragment, human, UniProt Q2M1P5 1-543, looked up)
chain: MGLEAQRLPGAEEAPVRVALRVRPLLPKELLHGHQSCLQVEPGLGRVTLGRDRHFGFHVVLAEDAGQEAVYQACVQPLLEAFFEGFNATVFAYGQTGSGKTYTMGEASVASLLEDEQGIVPRAMAEAFKLIDENDLLDCLVHVSYLEVYKEEFRDLLEVGTASRDIQLREDERGNVVLCGVKEVDVEGLDEVLSLLEMGNAARHTGATHLNHLSSRSHTVFTVTLEQRGRAPSRLPRPAPGQLLVSKFHFVDLAGSERVLKTGSTGERLKESIQINSSLLALGNVISALGDPQRRGSHIPYRDSKITRILKDSLGGNAKTVMIACVSPSSSDFDETLNTLNYASRAQNIRNRATVNWRPEAERPPEETASGARGPPRHRSETRIIHRGRRAPGPATASAAAAMRLGAECARYRACTDAAYSLLRELQAEPGLPGAAARKVRDWLCAVEGERSALSSASGPDSGIESASVEDQAAQGAGGRKEDEGAQQLLTLQNQVARLEEANRDFLAALEDAMEQYKLQSDRLREQQEEMVELRLRLELVRP

Experiments:
[1] = molecular target: Kif27M-Kif7CC chimera (GFP) (human); assay: SEC
[2] = molecular target: Kif7M-Kif27CC chimera (GFP) (human); assay: SEC
[3] = molecular target: T1, Gli2-ZF, zinc-finger domain of Gli2 (recombinant) (human, UniProt P10070 418-604); assay: BLI
T1 sequence (looked up): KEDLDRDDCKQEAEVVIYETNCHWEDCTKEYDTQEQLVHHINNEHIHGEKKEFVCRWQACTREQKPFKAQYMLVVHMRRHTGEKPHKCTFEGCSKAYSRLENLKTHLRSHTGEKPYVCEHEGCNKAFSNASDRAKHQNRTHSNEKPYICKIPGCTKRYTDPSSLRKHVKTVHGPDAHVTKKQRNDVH

Kif7-DM(E502A)-GFP = molecular target: B4; assay: TIRF microscopy of proteins on immobilised microtubules
[4] = molecular target: B3; assay: as above
Gli2-ZF-GFP = molecular target: T2, Gli2-ZF-GFP (human, UniProt P10070 418-604); assay: SEC
T2 sequence (looked up): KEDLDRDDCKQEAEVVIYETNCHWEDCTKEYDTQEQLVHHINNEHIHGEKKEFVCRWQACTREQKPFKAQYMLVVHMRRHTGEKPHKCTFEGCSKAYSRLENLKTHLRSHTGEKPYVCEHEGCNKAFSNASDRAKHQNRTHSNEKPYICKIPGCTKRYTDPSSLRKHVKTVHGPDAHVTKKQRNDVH

[5] = molecular target: GDP-taxol stabilized microtubules from bovine tubulin (co-sedimentation) (bovine) (UniProt Q6B856); assay: co-sedimentation
[6] = molecular target: GDP-taxol stabilized microtubules from bovine tubulin (co-sedimentation) (bovine) (UniProt Q6B856); assay: co-sedimentation; remark: listed apart in the source
SEC = molecular target: the molecule itself; assay: SEC
[7] = molecular target: the molecule itself; assay: single molecule fluorescence intensity and photobleaching analysis

B1: GST-Kif7-SCC (481-543aa) (domain or fragment, human, UniProt Q2M1P5 481-543, looked up)
chain: KEDEGAQQLLTLQNQVARLEEENRDFLAALEDAMEQYKLQSDRLREQQEEMVELRLRLELVRP
- Kd [3]: 69 ± 20 nM

Molecule: B3
- stoichiometry N (Gli2-ZF-GFP): 1 Kif7-DM per Gli2-ZF
- Kd [5]: 4230 nM
- Kd [6]: 540 nM

Molecule: B4
- stoichiometry N (SEC): 2

B8: GFP-tagged GST-Kif7-CC (domain or fragment, human, UniProt Q2M1P5 460-600, looked up)
chain: PDSGIESASVEDQAAQGAGGRKEDEGAQQLLTLQNQVARLEEENRDFLAALEDAMEQYKLQSDRLREQQEEMVELRLRLELVRPGWGGPRLLNGLPPGSFVPRPHTAPLGGAHAHVLGMVPPACLPGDEVGSEQRGEQVTN
- stoichiometry N [7]: 2

More lines, now with the values ahead:

- stoichiometry N [1]: 2
Molecule: Kif27M-Kif7CC chimera (GFP)

- stoichiometry N [2]: 2
Molecule: Kif7M-Kif27CC chimera (GFP)

- binding result (Kif7-DM(E502A)-GFP): binds
- fold above the background fluorescence of Gli alone on microtubules [4]: ~3 fold
B2: Gli2-ZF-SNAP (domain or fragment, human, UniProt P10070 418-604, looked up)
chain: KEDLDRDDCKQEAEVVIYETNCHWEDCTKEYDTQEQLVHHINNEHIHGEKKEFVCRWQACTREQKPFKAQYMLVVHMRRHTGEKPHKCTFEGCSKAYSRLENLKTHLRSHTGEKPYVCEHEGCNKAFSNASDRAKHQNRTHSNEKPYICKIPGCTKRYTDPSSLRKHVKTVHGPDAHVTKKQRNDVH
modifications: Alexa-647 label (in the TIRF assays)

- stoichiometry N (Gli2-ZF-GFP): 2 Kif7-CC-GFP per Gli2-ZF-GFP
B5: Kif7-CC-GFP (domain or fragment, human, UniProt Q2M1P5 460-600, looked up)
chain: PDSGIESASVEDQAAQGAGGRKEDEGAQQLLTLQNQVARLEEENRDFLAALEDAMEQYKLQSDRLREQQEEMVELRLRLELVRPGWGGPRLLNGLPPGSFVPRPHTAPLGGAHAHVLGMVPPACLPGDEVGSEQRGEQVTN

- binding result [3]: binds
B6: GST-Kif7-CC D505A (domain or fragment, human, UniProt Q2M1P5 460-600, looked up)
chain: PDSGIESASVEDQAAQGAGGRKEDEGAQQLLTLQNQVARLEEENRAFLAALEDAMEQYKLQSDRLREQQEEMVELRLRLELVRPGWGGPRLLNGLPPGSFVPRPHTAPLGGAHAHVLGMVPPACLPGDEVGSEQRGEQVTN

- Kd [3]: 48 ± 5 nM
B7: GST-Kif7-CC (460-600aa) (domain or fragment, human, UniProt Q2M1P5 460-600, looked up)
chain: PDSGIESASVEDQAAQGAGGRKEDEGAQQLLTLQNQVARLEEENRDFLAALEDAMEQYKLQSDRLREQQEEMVELRLRLELVRPGWGGPRLLNGLPPGSFVPRPHTAPLGGAHAHVLGMVPPACLPGDEVGSEQRGEQVTN
